Several values for one entry are separate records, joined by “and”; a condition that tells them apart may be missing. Equal entries are not always repeated.
What follows are binders tested against T1, YFP-RhoA·GTPγS (UniProt P61586 1-193) (assay: FRET or BRET; competition: non-fluorescent PH domain titrated into 1 μM YFP-RhoA·GTPγS + 1 μM CFP-PRG-PH; 20 mM NaHEPES pH 7.5, 1 mM EDTA, 1 mM DTT, 100 mM NaCl, 5 mM MgCl2; 25 °C; ratio 525/475 nm). Conditions: both partners purified.
T1 construct: RhoA; Loaded with GTPγS

Binder	IC50
p115-PH (PH domain of p115RhoGEF) (domain or fragment, UniProt Q92888 647-760, looked up, PH domain of p115 (Lbc-family RhoGEF)) KLVHEGPLTWRVTKDKAVEVHVLLLDDLLLLLQRQDERLLLKSHSRTLTPTPDGKTMLRPVLRLTSAMTREVATDHKAFYVLFTWDQEAQIYELVAQTVSERKNWCALITETAG	> 150 µM
PH domain from human AKAP-LbcRhoGEF (residues 2195-2333) (domain or fragment, UniProt Q12802 2195-2333, looked up, AKAP-LbcRhoGEF, human, PH domain, residues 2195-2333; also called AKAP-Lbc-PH; AKAP-LbcRhoGEF-PH) YEKKVRLNEIYTKTDSKSIMRMKSGQMFAKEDLKRKKLVRDGSVFLKNAAGRLKEVQAVLLTDILVFLQEKDQKYIFASLDQKSTVISLKKLIVREVAHEEKGLFLISMGMTDPEMVEVHASSKEERNSWIQIIQDTIN	~20 µM

Continued, values first:

IC50	Binder
> 60 µM and ~60 µM	PH domain from mouse p114RhoGEF (residues 302-444) (domain or fragment, UniProt Q6P9R4-1 302-444, looked up, p114RhoGEF, mouse, PH domain, residues 302-444; The final model holds residues 299-444, three more at the N-terminus than the stated construct; also called p114-PH; p114RhoGEF-PH) YEKDQRLKEIAAKTDQKSSGKLKNGLTFRKEDMLQQRQLHLEGALCWKSTSGRLKDVLAVLLTDVLLLLQEKDQKYVFASVDSKPPVISLQKLIVREVANEEKAMFLISASMQGPEMYEMYTSSKEDRNIWMAHIRRAVESCP
3 µM	PRG-PH (non-fluorescent PH domain of PDZRhoGEF) (domain or fragment, UniProt O15085 924-1085, looked up, PH domain of PDZRhoGEF (PRG); also called PDZRhoGEF-PH) VKQTENRHRLEGYQKRLDATALERASNPLAAEFKSLDLTTRKMIHEGPLTWRISKDKTLDLHVLLLEDLLVLLQKQDEKLLLKCHSKTAVGSSDSKQTFSPVLKLNAVLIRSVATDKRAFFIICTSKLGPPQIYELVALTSSDKNTWMELLEEAVRNATRHP

Reference: article PMC5988292, “Crystal structures of the PH domains from Lbc family of RhoGEFs bound to activated RhoA GTPase” (Data in Brief, 2018)
